Measurements taken from US20220017615A1 (SHANGHAI PHARMAEXPLORER, published 2022).

B1: Hu5F9-G4 (antibody, V domains shown)
VH: QVQLVQSGAEVKKPGASVKVSCKASGYTFTNYNMHWVRQAPGQRLEWMGTIYPGNDDTSYNQKFKDRVTITADTSASTAYMELSSLRSEDTAVYYCARGGYRAMDYWGQGTLVTVSS
VL: DIVMTQSPLSLPVTPGEPASISCRSSQSIVYSNGNTYLGWYLQKPGQSPQLLIYKVSNRFSGVPDRFSGSGSGTDFTLKISRVEAEDVGVYYCFQGSHVPYTFGQGTKLEIKR
B2: 54G8G6 (antibody, V domains shown)
VH: QVQLQQPGADLVKPGASVKMSCKASGYTFTSYWIIWVKQRPGQGLEWIGDINPGRGSPNYNEKFKRKATLTVDTSSSTAYMQLSSLTSEDSAVYYCVRGGLRRFDHWGQGTLVTVSA
VL: ENVLTQSPAIMSASPGEKVTMTCRASSSVSSSYLHWYQQKSGASPKLWIYSTSTLASGVPARFSGSGSGTSYSLTISSVEAEDAATYYCQQYSGYPYTFGGGTKLEIK
notes: Murine hybridoma antibody purified on protein G
B3: 95E2D10 (antibody, V domains shown)
VH: QIQLQQSGPELVKPGASMKISCKASGYPFTDYYIHWVKQKPGQGLEWIGWIYPGSGNNKYNEKFKGKATLTVDTSPSTVYMQLSSLTSEDTAVYFCARRAGNYFDYWGQGTTLTVSS
VL: NIVMTQSPKSMSRSVGERVTLSCRASENVRTYVFWYQQKPGLSPKLLIYGASNRYIGVPDRFTGSGSATDFTLTISSVQAEDLADYHCGQSYSYPLTFGAGTKLELK
notes: as for B2
B4: 132D1E5 (antibody, V domains shown)
VH: QVQLQQPGAELVRPGSSVKLSCKASGYTFTNNWMHWVKQRPLQGLEWIGNIDPSDSETHYNQKFKDKATLTVDKSSTTAYIQLSSLTSEDSAVYYCARWRGGGRGAMDYWGQGTSVTVSS
VL: DVQITQSPSYLAASPGETITINCRTSKNISKFLAWYQEKPGKTNKLLIYSGSTLQSGIPSRFSGSGSGTDFTLTISNLEPEDFAMYYCQQHNEYPWTFGRGTKLEIK
notes: as for B2

How the values were obtained:
[1] = target: T1, cynomolgus CD47, on CHOK1-cCD47 stable cell line (cynomolgus); experiment: flow cytometry (FACS) on CHOK1-cynoCD47 cells, mean fluorescence intensity
T1 construct: whole, on cells; check before use; also called CHOK1/cynoCD47; monkey-derived CD47
Procedure: (§1) The CHOK1-hCD47 stable cell lines and CHOK1-cCD47 stable cell lines were expanded to 90% confluence in a T-75 cell culture flask, the medium was exhausted, washed twice with HBSS buffer (Hanks balanced salt solution) (purchased from Invitrogen), and then treated and collected with enzyme-free cell dissociation solution (Versene solution: purchased from Life technology). The cells were washed twice with HBSS buffer. After counted, the cells were diluted with HBSS to 2×10⁶ cells per ml, added with 1% goat serum blocking solution, wherein the percentage was the mass percantage, incubated on ice for 30 minutes, and then washed twice with HBSS by centrifugation. […] The plate was washed 3 times with FACS buffer by centrifugation, added with 100 μl fixative solution [4% (v/v) Paraformaldehyde] per well to suspend the cells. 10 minutes later, it was washed twice with FACS buffer by centrifugation. The cells were suspended with 100 microliters of FACS buffer, FACS (FACS Calibur, purchased from BD) was used for detection and the results were analyzed.

[2] = target: T2, human CD47, full length, on transfected cells (human, UniProt Q08722 19-323); experiment: FACS CHOK1-hCD47; Ab 200 nM
T2 construct: whole, on cells; also called CHOK1-hCD47
Procedure: as §1

[3] = target: T1, cynomolgus CD47, on CHOK1-cCD47 stable …; experiment: FACS CHOK1-cCD47; Ab 0.064 nM
Procedure: as §1

[4] = target: T3, His-tagged CD47 recombinant protein, CD47-His (human, UniProt Q08722 19-141, limits assumed); experiment: ELISA on coated CD47-His; Ab 0.004 nM
T3 construct: it is not restated for CD47-His; also called human CD47-His protein; antigen CD47-His; not shown: His tag

[5] = target: T4, biotin-labeled CD47 extracellular domain protein (CD47-ECD) (UniProt Q08722 19-139, limits assumed, biotin-labeled (sites not given)); experiment: blocking ELISA, biotin-CD47-ECD on coated SIRPα-hFc; Ab 0 nM
T4 construct: extracellular domain; also called CD47 protein

[6] = target: T1, cynomolgus CD47, on CHOK1-cCD47 stable …; experiment: FACS CHOK1-cCD47; Ab 0 nM (background)
Procedure: as §1

[7] = target: T3, His-tagged CD47 recombinant protein, …; experiment: ELISA on coated CD47-His; Ab 0.021 nM
Procedure: (§2) The plate was sealed with plastic film and incubated at 4° C. overnight. The plate was washed twice with plate washing solution [PBS+0.01% (v/v) Tween20] the next day, and blocking solution [PBS+0.01% (v/v) Tween20 +1% (w/w) BSA] was added to block it at room temperature for 2 hours. […] After incubation at 37° C. for 2 hours, the plates were washed three times with plate washing solution [PBS+0.01% (v/v) Tween 20]. HRP (horseradish peroxidase) labeled secondary antibody (purchased from Sigma) was added, incubated at 37° C. for 2 hours, and then washed three times with plate washing solution [PBS+0.01% (v/v) Tween 20]. 1000 of TMB substrate was added to each well. After incubated at room temperature for 30 minutes, the plate was added with 100 μl of stop solution (1.0N HCl) to each well.

[8] = target: T4, biotin-labeled CD47 extracellular …; experiment: blocking ELISA, biotin-CD47-ECD on coated SIRPα-hFc; Ab 0.064 nM
Procedure: (§3) The plate was sealed with plastic film and incubated at 4° C. overnight. The plate was washed twice with plate washing solution [PBS+0.01% (v/v) Tween20] on the next day, and blocking solution [PBS+0.01% (v/v) Tween20 +1% (w/w) BSA] was added to block it at room temperature for 2 hours. […] After incubation at 37° C. for 2 hours, the plate was washed three times with the plate washing solution [PBS+0.01% (v/v) Tween 20]. HRP (horseradish peroxidase) labeled avidin diluent (purchased from Sigma) was added as 100 microliters per well, and after the plate was incubated for 2 hours at 37° C., it was washed 3 times with washing solution [PBS+0.01% (v/v) Tween 20]. 100 μl of TMB substrate was added to each well. After incubated at room temperature for 30 minutes, the plate was added with 100 μl of stop solution (1.0N HCl) to each well.

[9] = target: T1, cynomolgus CD47, on CHOK1-cCD47 stable …; experiment: FACS CHOK1-cCD47; Ab 1.6 nM
Procedure: as §1

[10] = target: T3, His-tagged CD47 recombinant protein, …; experiment: ELISA on coated CD47-His; Ab 13.333 nM
Procedure: as §2

[11] = target: T4, biotin-labeled CD47 extracellular …; experiment: blocking ELISA, biotin-CD47-ECD on coated SIRPα-hFc; Ab 0.32 nM
Procedure: as §3

[12] = target: T2, human CD47, full length, on transfected …; experiment: FACS CHOK1-hCD47; Ab 0.0128 nM
Procedure: as §1

[13] = target: T2, human CD47, full length, on transfected …; experiment: FACS CHOK1-hCD47; Ab 40 nM
Procedure: as §1

[14] = target: T3, His-tagged CD47 recombinant protein, …; experiment: ELISA on coated CD47-His; Ab 0.107 nM
Procedure: as §2

[15] = target: T2, human CD47, full length, on transfected …; experiment: FACS CHOK1-hCD47; Ab 8 nM
Procedure: as §1

[16] = target: T4, biotin-labeled CD47 extracellular …; experiment: blocking ELISA, biotin-CD47-ECD on coated SIRPα-hFc; Ab 8 nM
Procedure: as §3

[17] = target: T1, cynomolgus CD47, on CHOK1-cCD47 stable …; experiment: FACS CHOK1-cCD47; Ab 200 nM
Procedure: as §1

[18] = target: T1, cynomolgus CD47, on CHOK1-cCD47 stable …; experiment: FACS CHOK1-cCD47; Ab 40 nM
Procedure: as §1

[19] = target: T2, human CD47, full length, on transfected …; experiment: FACS CHOK1-hCD47; Ab 0.064 nM
Procedure: as §1

[20] = target: T4, biotin-labeled CD47 extracellular …; experiment: blocking ELISA, biotin-CD47-ECD on coated SIRPα-hFc; Ab 40 nM
Procedure: as §3

[21] = target: T4, biotin-labeled CD47 extracellular …; experiment: blocking ELISA, biotin-CD47-ECD on coated SIRPα-hFc; Ab 1.6 nM
Procedure: as §3

[22] = target: T1, cynomolgus CD47, on CHOK1-cCD47 stable …; experiment: FACS CHOK1-cCD47; Ab 8 nM
Procedure: as §1

[23] = target: T3, His-tagged CD47 recombinant protein, …; experiment: ELISA on coated CD47-His; Ab 0.533 nM
Procedure: as §2

[24] = target: T2, human CD47, full length, on transfected …; experiment: FACS CHOK1-hCD47; Ab 0.32 nM
Procedure: as §1

[25] = target: T2, human CD47, full length, on transfected …; experiment: FACS CHOK1-hCD47; Ab 1.6 nM
Procedure: as §1

[26] = target: T4, biotin-labeled CD47 extracellular …; experiment: blocking ELISA, biotin-CD47-ECD on coated SIRPα-hFc; Ab 0.0128 nM
Procedure: as §3

[27] = target: T4, biotin-labeled CD47 extracellular …; experiment: blocking ELISA, biotin-CD47-ECD on coated SIRPα-hFc; Ab 200 nM
Procedure: as §3

[28] = target: T1, cynomolgus CD47, on CHOK1-cCD47 stable …; experiment: FACS CHOK1-cCD47; Ab 0.32 nM
Procedure: as §1

[29] = target: T2, human CD47, full length, on transfected …; experiment: FACS CHOK1-hCD47; Ab 0 nM (background)
Procedure: as §1

[30] = target: T3, His-tagged CD47 recombinant protein, …; experiment: ELISA on coated CD47-His; Ab 0 nM (background)
Procedure: as §2

[31] = target: T3, His-tagged CD47 recombinant protein, …; experiment: ELISA on coated CD47-His; Ab 66.667 nM
Procedure: as §2

[32] = target: T3, His-tagged CD47 recombinant protein, …; experiment: ELISA on coated CD47-His; Ab 2.667 nM
Procedure: as §2

[33] = target: T1, cynomolgus CD47, on CHOK1-cCD47 stable …; experiment: FACS CHOK1-cCD47; Ab 0.0128 nM
Procedure: as §1

| Binder | mean fluorescence intensity [2] | mean fluorescence intensity [3] | OD450 nm [4] | OD450 nm of CD47 bound to SIRPα [5] | mean fluorescence intensity [6] | OD450 nm [7] | OD450 nm of CD47 bound to SIRPα [8] | mean fluorescence intensity [9] | OD450 nm [10] | OD450 nm of CD47 bound to SIRPα [11] | mean fluorescence intensity [12] | mean fluorescence intensity [13] | OD450 nm [14] | mean fluorescence intensity [15] | OD450 nm of CD47 bound to SIRPα [16] | mean fluorescence intensity [17] | mean fluorescence intensity [18] | mean fluorescence intensity [19] | OD450 nm of CD47 bound to SIRPα [20] | OD450 nm of CD47 bound to SIRPα [21] | further results |
| --- | --- | --- | --- | --- | --- | --- | --- | --- | --- | --- | --- | --- | --- | --- | --- | --- | --- | --- | --- | --- | --- |
| B1 |  |  |  |  |  |  |  |  |  |  |  |  |  |  |  |  |  |  |  |  | EC50 (read off the curve) [1]: ~3 nM |
| B2 | 16700 | 908 | 0.18 | 2.9 | 76.8 | 0.62 | 1.76 | 9570 | 2.94 | 0.31 | 216 | 17700 | 2.1 | 13500 | 0.09 | 17200 | 21200 | 561 | 0.06 | 0.13 | mean fluorescence intensity [22]: 21300; OD450 nm [23]: 2.99; mean fluorescence intensity [24]: 1940; mean fluorescence intensity [25]: 6180; OD450 nm of CD47 bound to SIRPα [26]: 2.89; OD450 nm of CD47 bound to SIRPα [27]: 0.07; mean fluorescence intensity [28]: 3250; mean fluorescence intensity [29]: 23.1; OD450 nm [30]: 0.05; OD450 nm [31]: 2.86; OD450 nm [32]: 3; mean fluorescence intensity [33]: 278 |
| B3 | 15800 | 734 | 0.17 | 2.94 | 76 | 0.58 | 2.84 | 7990 | 2.98 | 2 | 221 | 17300 | 2.07 | 12300 | 0.09 | 21200 | 17500 | 408 | 0.06 | 0.52 | mean fluorescence intensity [22]: 21400; OD450 nm [23]: 2.96; mean fluorescence intensity [24]: 2490; mean fluorescence intensity [25]: 6140; OD450 nm of CD47 bound to SIRPα [26]: 2.96; OD450 nm of CD47 bound to SIRPα [27]: 0.06; mean fluorescence intensity [28]: 3040; mean fluorescence intensity [29]: 23.3; OD450 nm [30]: 0.05; OD450 nm [31]: 2.93; OD450 nm [32]: 3.01; mean fluorescence intensity [33]: 223 |
| B4 | 7100 | 689 | 0.14 | 2.89 | 72.5 | 0.49 | 2.55 | 6060 | 2.95 | 0.79 | 88.4 | 8230 | 1.83 | 6310 | 0.07 | 6970 | 5610 | 318 | 0.08 | 0.16 | mean fluorescence intensity [22]: 8740; OD450 nm [23]: 2.96; mean fluorescence intensity [24]: 1330; mean fluorescence intensity [25]: 3750; OD450 nm of CD47 bound to SIRPα [26]: 2.92; OD450 nm of CD47 bound to SIRPα [27]: 0.08; mean fluorescence intensity [28]: 2060; mean fluorescence intensity [29]: 18.1; OD450 nm [30]: 0.06; OD450 nm [31]: 2.88; OD450 nm [32]: 3.07; mean fluorescence intensity [33]: 224 |
